Laboratory results as given in IntAct's records for PubMed 28559451.

B1: UL16-binding protein 6 (Homo sapiens), Q5VY80 (parent)
chain: MAAAAIPALLLCLPLLFLLFGWSRARRDDPHSLCYDITVIPKFRPGPRWCAVQGQVDEKTFLHYDCGNKTVTPVSPLGKKLNVTMAWKAQNPVLREVVDILTEQLLDIQLENYTPKEPLTLQARMSCEQKAEGHSSGSWQFSIDGQTFLLFDSEKRMWTTVHPGARKMKEKWENDKDVAMSFHYISMGDCIGWLEDFLMGMDSTLEPSAGAPLAMSSGTTQLRATATTLILCCLLIILPCFILPGI

Variants of: B1
Settings: with nkg2d_human KLRK1, P26718
Chain of nkg2d_human KLRK1, P26718 (P26718 whole entry): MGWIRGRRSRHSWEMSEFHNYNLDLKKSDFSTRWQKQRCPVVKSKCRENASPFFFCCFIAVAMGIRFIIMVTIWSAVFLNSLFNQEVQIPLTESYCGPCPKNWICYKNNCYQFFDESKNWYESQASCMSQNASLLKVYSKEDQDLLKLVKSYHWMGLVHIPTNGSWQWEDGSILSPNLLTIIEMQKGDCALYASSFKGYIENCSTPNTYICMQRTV
MAAAAIPALLLCLPLLFLLFGWSRARRDDPHSLCYDITVIPKFRPGPRWCAVQGQVDEKTFLHYDCGNKTVTPVSPLGKKLNVTMAWKAQNPVLREVVDILTEQLRDIQLENYTPKEPLTLQARMSCEQKAEGHSSGSWQFSIDGQTFLLFDSEKRMWTTVHPGARKMKEKWENDKDVAMSFHYISMGDCIGWLEDFLMGMDSTLEPSAGAPLAMSSGTTQLRATATTLILCCLLIILPCFILPGI [L106R] was tested, and the “effect of a mutation on the interaction” value was “decreasing interaction strength”.
